Data as given in IntAct's records for PubMed 23468591.

B1: IkB-like protein (African swine fever virus (isolate Tick/Malawi/Lil 20-1/1983)), O36972 (parent)
chain: MDTIGLFSVEAEHLFVEWVKKCIKKGDLTLFETLFNADPWIVNRCNKNKITVFMLICIYGRLDFLRFLFKQESYPGEIVNHYRRDKDGNSAWHYLAEKNNHLLLEEVLDYFGKNGIRVCFPNFNGVTPIMKAAMRGRTLSVLSLLKYGANPNRKDYLKGFTTWDWAVFTGHADLVKTLNKGYQKPLFMHFPLYKLDVFHRRFKKKPKIIITGCEDNVYEKLPEQNSNFLCVKKLNKYGK

Variants of: B1
Settings: with PPP3CA

Variant	effect of a mutation on the interaction
F228A;L229A;V231A;K232A	disrupting interaction strength
